Test results reported in paper PMC3926955 (The Journal of Cell Biology, 2014).
Substitutions are numbered along the chain they refer to. In names and notes the source's numbering stands.

B1: His-Atg37ΔC (WT) (domain or fragment, P. pastoris, UniProt C4R8D7 1-278, looked up)
chain: MSESIDRVFVKAIGTIRTLSSRTGYGGLPRPPIENRVKLYGLYKQATEGDVAGVMERPLGDSPEAEAAKRKWDAWRSEQGTSKTEAKRQYISYLIDTMKQFASDTTEARELLSELEYLWNQISDVSPNDSSDSESNAGPAQLLQNHAQLLSRDISVVDDPITSSGMDPMYNPSFQRHNSSRFINASTAERLNSLSNYYSNLNPTPPLSSRRYQGSVTPRNVDFIKWQNDINNSINKLNHDLQLLANRRLQSSASDPLYSKRGSDLTHDDFVNDISSSS
B2: His-Atg37ΔC acbs mutant (Y40F K44A) (domain or fragment, P. pastoris, UniProt C4R8D7 1-278, looked up)
chain: B1 chain with Y40F, K44A

Molecular target: T1, GST-Pex3ΔN (aa 41–455, cytosolic domain) (P. pastoris, UniProt Q92262 41-455)
T1 sequence (looked up): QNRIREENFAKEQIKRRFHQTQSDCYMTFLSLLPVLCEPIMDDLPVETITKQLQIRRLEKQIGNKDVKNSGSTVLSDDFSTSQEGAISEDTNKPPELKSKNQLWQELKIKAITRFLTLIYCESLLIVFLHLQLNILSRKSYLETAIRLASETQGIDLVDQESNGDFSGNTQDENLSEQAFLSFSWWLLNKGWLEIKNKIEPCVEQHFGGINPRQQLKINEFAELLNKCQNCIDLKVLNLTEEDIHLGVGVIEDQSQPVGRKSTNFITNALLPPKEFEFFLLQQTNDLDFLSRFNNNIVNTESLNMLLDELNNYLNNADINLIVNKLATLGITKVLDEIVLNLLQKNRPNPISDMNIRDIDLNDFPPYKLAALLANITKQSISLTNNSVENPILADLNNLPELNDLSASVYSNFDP
Test: pull-down

Binder	binding result
B1	binds
B2	binds
